Experiment [1] concerns the target human CD47 on cells (SHP-77 tumor cells, human red blood cells, CCRF-CEM cells, human CD47 CHO-K1 stable cell line) (human) (UniProt Q08722). Nature of the experiment: cell-based or functional assay.
For experiment [2] the target is unchanged. Nature of the experiment: flow cytometry on human CD47 CHO-K1 cells; plateau not reached, not accurate.
Experiment [3] shares this target. Nature of the experiment: flow cytometry on human RBCs. In general terms: A flow cytometer gives signals particle by particle.
For experiment [4], the target named is cynomolgus CD47 on CHO-K1 stable cell line (cynomolgus). Nature of the experiment: flow cytometry on cynomolgus CD47 CHO-K1 cells; plateau not reached, not accurate.
Experiment [5] concerns the target human CD47 on cells (SHP-77 tumor cells, human red blood cells, CCRF-CEM cells, human CD47 CHO-K1 stable cell line) (human) (UniProt Q08722). Nature of the experiment: flow cytometry on SHP-77 cells.

The EC50 is the concentration giving half of the maximal effect. Higher therefore signals lower potency in that assay. In experiment [1], TTI-622 fusion protein (Fc fusion) returned a CCRF-CEM phagocytosis EC50 of 0.4 nM. In experiment [1], this substance registered a CCRF-CEM phagocytosis, Phagocytosis (%) of 36.6%. In addition, the EC50 in experiment [2] was determined as 10.4 nM; in experiment [3] it was 9.7 nM; in experiment [4] it was 9.3 nM; in experiment [5] it was 4.9 nM. In addition, the results for the Fitted maximal MFI in experiment [3] and in experiment [5] were 644 MFI and 10500 MFI, respectively.

The record behind these values is US20260132197A1.
